Data set [1] addresses GST fused WWP-1 (C. elegans HECT E3 ubiquitin ligase WWP-1, full length, wild type, N-terminal GST from pGEX-KG).

Chain of GST fused WWP-1 (C. elegans HECT E3 ubiquitin ligase WWP-1, full length, wild type, N-terminal GST from pGEX-KG) (chain, as listed by the source): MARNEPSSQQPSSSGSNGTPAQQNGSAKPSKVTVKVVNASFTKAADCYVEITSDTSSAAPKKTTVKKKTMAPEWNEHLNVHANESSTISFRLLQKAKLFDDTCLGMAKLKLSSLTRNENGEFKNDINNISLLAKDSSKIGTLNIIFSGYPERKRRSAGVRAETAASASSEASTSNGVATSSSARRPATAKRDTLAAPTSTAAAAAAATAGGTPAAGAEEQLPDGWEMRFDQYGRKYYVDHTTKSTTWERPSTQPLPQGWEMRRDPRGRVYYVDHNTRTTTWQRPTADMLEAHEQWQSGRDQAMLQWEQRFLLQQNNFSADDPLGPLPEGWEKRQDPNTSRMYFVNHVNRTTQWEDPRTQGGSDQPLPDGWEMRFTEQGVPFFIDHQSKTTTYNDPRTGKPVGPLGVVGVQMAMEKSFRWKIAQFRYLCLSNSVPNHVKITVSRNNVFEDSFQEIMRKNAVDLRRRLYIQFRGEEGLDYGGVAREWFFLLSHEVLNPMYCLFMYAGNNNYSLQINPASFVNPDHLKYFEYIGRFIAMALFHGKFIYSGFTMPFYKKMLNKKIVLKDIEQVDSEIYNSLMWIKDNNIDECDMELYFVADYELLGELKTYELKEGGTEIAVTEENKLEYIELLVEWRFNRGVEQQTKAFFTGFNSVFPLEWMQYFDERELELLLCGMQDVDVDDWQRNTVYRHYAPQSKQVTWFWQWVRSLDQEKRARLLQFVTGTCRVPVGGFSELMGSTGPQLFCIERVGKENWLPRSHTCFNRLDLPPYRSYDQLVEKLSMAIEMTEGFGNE

B1: recombinant UBC-18 (C. elegans E2 ubiquitin conjugating enzyme, GST tag removed by thrombin cleavage) (protein)
chain: MSATRRLQKELGDLKNCGVKAYENVECEETNLLKWTVLLIPDKEPYNKGAFKVGITFPVDYPFKPPKVAFETKIYHPNVDEEGKFCLPIVTAENWKPATKTEQVMMALLSLINEPEPSHPIRADVAEEFQKDHKKFMKTAEEHTRKHAEKRPE
As for B1, in data set [1], the “in vitro ubiquitination assay of WWP-1 with embryo extract from ubc-18(ku354) mutant worms, recombinant UBC-18 added back” value was “ligase activity was restored with the addition of recombinant UBC-18”; the “in vitro ubiquitination assay using purified components (anti-Flag immunoblot)” value is “WWP-1 exhibited ubiquitin ligase activity in an E1 and UBC-18 dependent manner”. For the same protein, the “in vitro ubiquitin conjugation reaction, SDS/PAGE with or without beta-mercaptoethanol” value with Flag tagged ubiquitin is “UBC-18 is indeed a functional E2 and is capable of forming a thiol ester bond with ubiquitin”.

Source of the values: patent US20120148565.
